Patent US20230093155A1
Several values for one entry are separate records, joined by “and”; a condition that tells them apart may be missing. Identical values can stand only once.

Biological target: IL-2Rβ and γc complex expressed on the lymphocytes (human) (UniProt P14784)
Experiment: cell-based or functional assay

Chain of IL-2Rβ and γc complex expressed on the lymphocytes (human) (P14784 27-551, chain 1 of 2): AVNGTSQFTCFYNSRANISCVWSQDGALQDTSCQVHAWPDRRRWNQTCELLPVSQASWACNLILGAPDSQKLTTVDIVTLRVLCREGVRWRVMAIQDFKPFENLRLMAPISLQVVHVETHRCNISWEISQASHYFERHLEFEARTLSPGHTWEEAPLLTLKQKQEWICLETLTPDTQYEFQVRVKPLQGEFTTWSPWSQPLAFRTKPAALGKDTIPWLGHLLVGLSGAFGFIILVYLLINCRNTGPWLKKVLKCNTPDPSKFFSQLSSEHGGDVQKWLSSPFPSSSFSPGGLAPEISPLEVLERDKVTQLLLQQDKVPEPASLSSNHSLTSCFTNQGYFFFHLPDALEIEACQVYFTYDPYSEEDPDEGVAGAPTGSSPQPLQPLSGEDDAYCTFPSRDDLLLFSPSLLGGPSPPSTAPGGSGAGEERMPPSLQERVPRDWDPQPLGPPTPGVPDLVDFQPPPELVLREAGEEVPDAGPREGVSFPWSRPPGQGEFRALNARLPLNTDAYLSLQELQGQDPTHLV
Chain of IL-2Rβ and γc complex expressed on the lymphocytes (human) (P31785 23-369, chain 2 of 2, further chain): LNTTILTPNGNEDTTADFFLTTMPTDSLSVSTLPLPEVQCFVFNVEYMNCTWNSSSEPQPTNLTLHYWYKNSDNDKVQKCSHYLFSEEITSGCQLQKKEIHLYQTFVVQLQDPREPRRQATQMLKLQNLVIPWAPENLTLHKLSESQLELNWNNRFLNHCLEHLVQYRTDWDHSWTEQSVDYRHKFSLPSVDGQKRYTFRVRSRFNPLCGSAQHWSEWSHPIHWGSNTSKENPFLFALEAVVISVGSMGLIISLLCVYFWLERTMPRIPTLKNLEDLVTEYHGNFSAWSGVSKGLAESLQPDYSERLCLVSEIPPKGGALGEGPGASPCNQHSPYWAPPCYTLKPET

CD8 T cell proliferation EC50 (pM)	Fold change vs. P-0313 [fold]	Substance
68800 pM	2170	P-0793 (IL-15 Q108A/IL-15Rα Fc fusion) (from UniProt P0DOX5 223-448; Q13261 31-107)
132 pM	4.2	P-0771 (IL-15 V63A/IL-15Rα Fc fusion) (from UniProt Q13261 31-107)
296000 pM	6730	P-0357 (IL-15 I68D/IL-15Rα Fc fusion) (from UniProt Q13261 31-107)
360 pM	11.3	P-0769 (IL-15 V63K/IL-15Rα Fc fusion) (from UniProt Q13261 31-107)
1250 pM	29	P-0356 (IL-15 I68F/IL-15Rα Fc fusion) (from UniProt Q13261 31-107)
14500 pM	330	P-0737 (IL-15 I68G/IL-15Rα Fc fusion) (from UniProt Q13261 31-107)
4470 pM	102	P-0736 (IL-15 I68Q/IL-15Rα Fc fusion) (from UniProt Q13261 31-107)
62100 pM	1960	P-0764 (IL-15 Q108S/IL-15Rα Fc fusion protein) (from UniProt P0DOX5 223-448; Q13261 31-107)

Further lines, the substance ahead of its results:

Substance	CD8 T cell proliferation EC50 (pM)	Fold change vs. P-0313 [fold]
P-0772 (IL-15 V63A/I68Q/IL-15Rα Fc fusion) (from UniProt Q13261 31-107)	15400 pM	485
P-0773 (IL-15 V63A/I68H variant/IL-15RαSushi Fc fusion protein) (from UniProt Q13261 31-107)	1420 pM	45
P-0738 (IL-15 I68K/IL-15Rα Fc fusion) (from UniProt Q13261 31-107)	24800 pM	564
P-0770 (IL-15 V63R/IL-15Rα Fc fusion) (from UniProt Q13261 31-107)	184 pM	5.8
P-0313 (IL-15 S58D/IL-15Rα Fc fusion) (from UniProt Q13261 31-107)	44 pM and 32 pM	1
P-0358 (IL-15 I68H/IL-15Rα Fc fusion) (from UniProt Q13261 31-107)	419 pM	9.5
P-0768 (IL-15 V63A/I68G/IL-15Rα Fc fusion) (from UniProt Q13261 31-107)	48000 pM	1510
